Test results as given in patent publication US20170343530A1.

Biological target: mutant connector conjugated with a Strep-tag to its C-terminal
Experiment: cell-based or functional assay

- three discrete steps of channel change (conductance assay): 32%
Substance: streptavidin (coated on nanogold) (from UniProt P22629 37-163)
